B1: Trastuzumab HCDR3 variant TRYASGYFYAFDY (Fab, V domains shown)
VH: EVQLVESGGGLVQPGGSLRLSCAASGFNIKDTYIHWVRQAPGKGLEWVARIYPTNGYTRYADSVKGRFTISADTSKNTAYLQMNSLRAEDTAVYYCTRYASGYFYAFDYWGQGTLVTVSS
VL: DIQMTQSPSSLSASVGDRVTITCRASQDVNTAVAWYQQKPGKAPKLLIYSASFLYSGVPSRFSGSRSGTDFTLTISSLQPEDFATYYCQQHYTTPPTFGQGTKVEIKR
B2: Trastuzumab HCDR3 variant TRYEYQDYYHFDY (Fab, V domains shown)
VH: EVQLVESGGGLVQPGGSLRLSCAASGFNIKDTYIHWVRQAPGKGLEWVARIYPTNGYTRYADSVKGRFTISADTSKNTAYLQMNSLRAEDTAVYYCTRYEYQDYYHFDYWGQGTLVTVSS
VL: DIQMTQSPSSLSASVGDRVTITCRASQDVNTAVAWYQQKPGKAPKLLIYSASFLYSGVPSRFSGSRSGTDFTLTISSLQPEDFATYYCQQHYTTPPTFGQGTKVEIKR
B3: Trastuzumab HCDR3 variant TRYFFNGWYYFDV (Fab, V domains shown)
VH: EVQLVESGGGLVQPGGSLRLSCAASGFNIKDTYIHWVRQAPGKGLEWVARIYPTNGYTRYADSVKGRFTISADTSKNTAYLQMNSLRAEDTAVYYCTRYFFNGWYYFDVWGQGTLVTVSS
VL: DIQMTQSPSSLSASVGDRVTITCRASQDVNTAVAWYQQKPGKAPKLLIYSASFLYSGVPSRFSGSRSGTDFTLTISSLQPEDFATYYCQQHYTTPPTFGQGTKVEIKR
B4: Trastuzumab HCDR3 variant TRYGGYGYYYMDY (Fab, V domains shown)
VH: EVQLVESGGGLVQPGGSLRLSCAASGFNIKDTYIHWVRQAPGKGLEWVARIYPTNGYTRYADSVKGRFTISADTSKNTAYLQMNSLRAEDTAVYYCTRYGGYGYYYMDYWGQGTLVTVSS
VL: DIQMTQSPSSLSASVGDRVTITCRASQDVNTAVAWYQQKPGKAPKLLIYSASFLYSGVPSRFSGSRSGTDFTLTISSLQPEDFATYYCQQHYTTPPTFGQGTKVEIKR
B5: Trastuzumab HCDR3 variant TRYGSFHYYYFDV (Fab, V domains shown)
VH: EVQLVESGGGLVQPGGSLRLSCAASGFNIKDTYIHWVRQAPGKGLEWVARIYPTNGYTRYADSVKGRFTISADTSKNTAYLQMNSLRAEDTAVYYCTRYGSFHYYYFDVWGQGTLVTVSS
VL: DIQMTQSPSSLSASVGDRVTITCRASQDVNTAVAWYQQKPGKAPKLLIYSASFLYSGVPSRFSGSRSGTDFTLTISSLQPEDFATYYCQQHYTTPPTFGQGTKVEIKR
B6: Trastuzumab HCDR3 variant TRYGYGGPYWFDY (Fab, V domains shown)
VH: EVQLVESGGGLVQPGGSLRLSCAASGFNIKDTYIHWVRQAPGKGLEWVARIYPTNGYTRYADSVKGRFTISADTSKNTAYLQMNSLRAEDTAVYYCTRYGYGGPYWFDYWGQGTLVTVSS
VL: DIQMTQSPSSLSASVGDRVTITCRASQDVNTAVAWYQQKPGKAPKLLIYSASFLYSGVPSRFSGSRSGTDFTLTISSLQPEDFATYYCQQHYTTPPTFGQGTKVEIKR
B7: Trastuzumab HCDR3 variant TRYLHDYYYYFDY (Fab, V domains shown)
VH: EVQLVESGGGLVQPGGSLRLSCAASGFNIKDTYIHWVRQAPGKGLEWVARIYPTNGYTRYADSVKGRFTISADTSKNTAYLQMNSLRAEDTAVYYCTRYLHDYYYYFDYWGQGTLVTVSS
VL: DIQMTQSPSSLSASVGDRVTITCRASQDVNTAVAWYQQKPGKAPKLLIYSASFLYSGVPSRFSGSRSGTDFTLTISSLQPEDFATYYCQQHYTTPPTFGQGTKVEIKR
B8: Trastuzumab HCDR3 variant TRYRGPYYYYFDP (Fab, V domains shown)
VH: EVQLVESGGGLVQPGGSLRLSCAASGFNIKDTYIHWVRQAPGKGLEWVARIYPTNGYTRYADSVKGRFTISADTSKNTAYLQMNSLRAEDTAVYYCTRYRGPYYYYFDPWGQGTLVTVSS
VL: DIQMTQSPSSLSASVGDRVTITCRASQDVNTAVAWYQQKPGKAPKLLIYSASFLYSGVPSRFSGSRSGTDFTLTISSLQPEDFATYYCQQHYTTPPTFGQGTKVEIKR
B9: Trastuzumab HCDR3 variant TRYYYYGSYHFDY (Fab, V domains shown)
VH: EVQLVESGGGLVQPGGSLRLSCAASGFNIKDTYIHWVRQAPGKGLEWVARIYPTNGYTRYADSVKGRFTISADTSKNTAYLQMNSLRAEDTAVYYCTRYYYYGSYHFDYWGQGTLVTVSS
VL: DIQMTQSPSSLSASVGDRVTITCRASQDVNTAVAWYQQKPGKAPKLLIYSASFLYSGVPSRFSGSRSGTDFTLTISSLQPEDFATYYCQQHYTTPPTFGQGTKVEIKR
B10: Trastuzumab HCDR3 variant TSIFSGGYYGLDS (Fab, V domains shown)
VH: EVQLVESGGGLVQPGGSLRLSCAASGFNIKDTYIHWVRQAPGKGLEWVARIYPTNGYTRYADSVKGRFTISADTSKNTAYLQMNSLRAEDTAVYYCTSIFSGGYYGLDSWGQGTLVTVSS
VL: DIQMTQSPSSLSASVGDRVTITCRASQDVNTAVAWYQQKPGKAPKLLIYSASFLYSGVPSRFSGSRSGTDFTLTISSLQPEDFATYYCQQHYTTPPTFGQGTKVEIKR
B11: Trastuzumab HCDR3 variant VRWGVGAYYNFDY (Fab, V domains shown)
VH: EVQLVESGGGLVQPGGSLRLSCAASGFNIKDTYIHWVRQAPGKGLEWVARIYPTNGYTRYADSVKGRFTISADTSKNTAYLQMNSLRAEDTAVYYCVRWGVGAYYNFDYWGQGTLVTVSS
VL: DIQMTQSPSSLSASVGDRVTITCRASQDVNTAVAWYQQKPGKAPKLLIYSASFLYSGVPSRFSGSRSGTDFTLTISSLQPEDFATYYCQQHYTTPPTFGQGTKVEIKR
B12: Trastuzumab HCDR3 variant VRYFYDGNYYFDL (Fab, V domains shown)
VH: EVQLVESGGGLVQPGGSLRLSCAASGFNIKDTYIHWVRQAPGKGLEWVARIYPTNGYTRYADSVKGRFTISADTSKNTAYLQMNSLRAEDTAVYYCVRYFYDGNYYFDLWGQGTLVTVSS
VL: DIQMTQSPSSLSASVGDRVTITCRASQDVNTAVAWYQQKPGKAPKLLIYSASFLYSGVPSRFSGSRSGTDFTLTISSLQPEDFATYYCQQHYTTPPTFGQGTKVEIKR

biological target: T1, HER2 (human epidermal growth factor receptor 2) (human, UniProt P04626 23-629); assay: SPR
T1 construct: also called Antigen: HER2

Binder | Kd [nM] | log(KD (M))
B1 | 9.14 | -8.04
B2 | 18.5 | -7.73
B3 | 0.94 | -9.03
B4 | 12 | -7.92
B5 | 8.73 | -8.06
B6 | 14.3 | -7.84
B7 | 22.7 | -7.64
B8 | 12.1 | -7.92
B9 | 6.82 | -8.17
B10 | 8.57 | -8.07
B11 | 12.1 | -7.92
B12 | 22.9 | -7.64

Reference: patent US20250218531A1 (ABSCI, published 2025)
